Measurements as given in CN110760003A.

Biological target: 人HER3胞外区蛋白 (human HER3 extracellular region protein) (human) (UniProt P21860)
Experiment: ELISA; human HER3 extracellular region coated at 2 μg/mL, scFv at 2 μg/mL, detected with HRP anti-6×His Tag antibody, TMB, triplicate wells (mean ± deviation)

吸光度(A450)均值: 0.961 A450
B1: 抗HER3单链抗体 (anti-HER3-scFv) (scFv)
scFv: QVQLVESGGGLVQPGGSLRLSCAASGFTFSSYAMSWVRQAPGKGLEWVSAINSQGKSTYYADSVKGRFTISRDNSKNTLYLQMNSLRAEDTAVYYCARWGDEGFDIWGQGTLVTVSSGGGGSGGGGSGGGGSDIQMTQSPSSLSASVGDRVTITCRASQGISNWLAWYQQKPGKAPKLLIYGASSLQSGVPSRFSGSGSGTDFTLTISSLQPEDFAVYYCQQYSSFPTTFGQGTKVEIK
